Assay [1] deals with T1, His-ORP1L (UniProt Q9BXW6-1 1-950).
T1 construct: ORP1L in pET-28a; source: prokaryotic expressed, purified
T1 sequence (looked up): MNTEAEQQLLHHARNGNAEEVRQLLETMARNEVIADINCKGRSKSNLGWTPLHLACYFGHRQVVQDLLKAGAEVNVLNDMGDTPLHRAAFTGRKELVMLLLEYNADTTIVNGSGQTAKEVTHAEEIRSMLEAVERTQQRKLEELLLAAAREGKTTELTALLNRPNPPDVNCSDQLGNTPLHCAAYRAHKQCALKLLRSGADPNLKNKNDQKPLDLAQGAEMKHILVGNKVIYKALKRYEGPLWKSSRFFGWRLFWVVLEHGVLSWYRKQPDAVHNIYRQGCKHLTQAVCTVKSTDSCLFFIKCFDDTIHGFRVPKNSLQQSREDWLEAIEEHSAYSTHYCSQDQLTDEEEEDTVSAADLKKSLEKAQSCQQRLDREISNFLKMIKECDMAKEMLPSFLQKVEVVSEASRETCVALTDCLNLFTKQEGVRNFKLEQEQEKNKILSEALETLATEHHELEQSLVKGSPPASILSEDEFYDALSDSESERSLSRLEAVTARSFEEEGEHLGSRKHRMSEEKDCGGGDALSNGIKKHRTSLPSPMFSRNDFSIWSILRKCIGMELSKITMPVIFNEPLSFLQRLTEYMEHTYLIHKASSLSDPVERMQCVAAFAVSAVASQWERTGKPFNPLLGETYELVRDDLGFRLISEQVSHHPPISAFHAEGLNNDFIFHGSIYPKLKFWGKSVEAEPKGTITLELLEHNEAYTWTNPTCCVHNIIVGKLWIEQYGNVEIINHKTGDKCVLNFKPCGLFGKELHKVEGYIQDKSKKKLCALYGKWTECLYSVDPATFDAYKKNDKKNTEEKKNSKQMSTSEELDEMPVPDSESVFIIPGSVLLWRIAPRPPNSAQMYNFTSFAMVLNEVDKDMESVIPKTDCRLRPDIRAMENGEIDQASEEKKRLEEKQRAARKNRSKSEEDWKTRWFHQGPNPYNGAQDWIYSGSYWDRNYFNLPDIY
Kind of assay: pull-down; in vitro binding: purified prokaryotic expressed His-ORP1L or His-ORP1L(336-950aa) with increasing amounts of His-RILP, incubated with GST-VAPa(1-225aa) retained on GST beads; ORP1L bound assessed by Western blot. The settings on record: both partners purified. A general note: A western blot detects proteins with antibodies after separation by electrophoresis.

In assay [2] the target is T2, His-ORP1L(336-950aa) (UniProt Q9BXW6-1 336-950).
T2 construct: source: prokaryotic expressed, purified
T2 sequence (looked up): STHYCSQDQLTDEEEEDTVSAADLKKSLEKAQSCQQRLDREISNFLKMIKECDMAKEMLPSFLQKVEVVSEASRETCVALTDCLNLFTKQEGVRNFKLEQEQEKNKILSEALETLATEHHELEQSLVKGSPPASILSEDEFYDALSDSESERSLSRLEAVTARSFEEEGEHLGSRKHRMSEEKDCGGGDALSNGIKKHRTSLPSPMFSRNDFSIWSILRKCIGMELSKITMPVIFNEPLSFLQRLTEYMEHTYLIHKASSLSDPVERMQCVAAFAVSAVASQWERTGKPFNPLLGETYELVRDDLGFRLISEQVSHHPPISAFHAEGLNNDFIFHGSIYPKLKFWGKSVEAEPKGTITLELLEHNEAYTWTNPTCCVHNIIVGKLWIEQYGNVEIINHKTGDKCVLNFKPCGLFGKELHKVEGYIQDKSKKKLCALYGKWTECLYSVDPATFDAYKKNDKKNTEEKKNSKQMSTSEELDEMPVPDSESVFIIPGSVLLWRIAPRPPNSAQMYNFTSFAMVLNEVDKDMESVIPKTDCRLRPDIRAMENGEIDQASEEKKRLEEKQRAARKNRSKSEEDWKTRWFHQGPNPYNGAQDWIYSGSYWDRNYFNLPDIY
The description is as above. The following applies: both partners purified.

B1: GST-VAPa(1-225aa) (domain or fragment, UniProt Q9P0L0 1-225, looked up)
chain: MASASGAMAKHEQILVLDPPTDLKFKGPFTDVVTTNLKLRNPSDRKVCFKVKTTAPRRYCVRPNSGIIDPGSTVTVSVMLQPFDYDPNEKSKHKFMVQTIFAPPNTSDMEAVWKEAKPDELMDSKLRCVFEMPNENDKLNDMEPSKAVPLNASKQDGPMPKPHSVSLNDTETRKLMEECKRLQGEMMKLSEENRHLRDEGLRLRKVAHSDKPGSTSTASFRDNVT
notes: VAP-A (vesicle-associated membrane protein-associated protein A) residues 1-225, the cytoplasmic region; subcloned into pGEX-4T-1; also called GST-tagged VAP-A(1-225aa); source: prokaryotic expressed, retained on GST beads (GST-Sepharose 4B resin)
With B1, the binding result in assay [1] and in assay [2] was “binds” each time.

B2: His-RILP (natural protein, UniProt Q96NA2 1-401, looked up)
chain: MEPRRAAPGVPGWGSREAAGSASAAELVYHLAGALGTELQDLARRFGPEAAAGLVPLVVRALELLEQAAVGPAPDSLQVSAQPAEQELRRLREENERLRRELRAGPQEERALLRQLKEVTDRQRDELRAHNRDLRQRGQETEALQEQLQRLLLVNAELRHKLAAMQTQLRAAQDRERERQQPGEAATPQAKERARGQAGRPGHQHGQEPEWATAGAGAPGNPEDPAEAAQQLGRPSEAGQCRFSREEFEQILQERNELKAKVFLLKEELAYFQRELLTDHRVPGLLLEAMKVAVRKQRKKIKAKMLGTPEEAESSEDEAGPWILLSDDKGDHPPPPESKIQSFFGLWYRGKAESSEDETSSPAPSKLGGEEEAQPQSPAPDPPCSALHEHLCLGASAAPEA
notes: RILP in pET-28a; source: prokaryotic expressed, purified
B2: the binding result in assay [2] is reported as “binds”.

The record behind these values is paper PMC11352460, “RILP Induces Cholesterol Accumulation in Lysosomes by Inhibiting Endoplasmic Reticulum–Endolysosome Interactions” (Cells, 2024).
